Residue numbers refer to the chain shown, from its start. In names and notes the source's numbering stands. Several values for one entry are separate records, joined by “and”; a condition that tells them apart may be missing. Equal entries are not always repeated. Values belong to the molecule of their own block, whether it stands above or below them. Ends that are not written are not given here.
Assays:
[1] = system: GFP-HSF2BP; experiment: Co-immunoprecipitation of Flag-BRCA2 variants/fragments with GFP-HSF2BP WT; type: cell-based, human; conditions: transient HEK293T, anti-GFP beads, immunoblot
From the text: (§1) Expression constructs for producing point mutation and truncation variants of HS2BP and BRCA2 in human cells were engineered as described before[16] in the PiggyBac vectors by Gibson assembly. For transient expression into HEK293T cells plasmid DNA was transfected using calcium precipitation method or PEI transfection. For stable integration into HeLa cells, PiggyBac expression vectors were co-lipofected together with PiggyBac transposase plasmid (hyPBase[45]) with Lipofectamine 3000 (Thermo Fisher).
(§2) Cells were washed twice in ice-cold PBS and lysed in situ in NETT buffer (100 mM NaCl, 50 mM Tris pH 7.5, 5 mM EDTA pH 8.0, 0.5% Triton-X100) supplemented immediately before use with protease inhibitor cocktail (Roche) and 0.4 mg/ml Pefabloc (Roche) (NETT++); 450 µl NETT++ buffer was used per 145 mm dish ES cells, 1 ml for HeLa and HEK293T. After 5–10 min, cells were scraped off and collected in 1.5 ml microcentrifuge tubes; lysis was continued for additional 20–30 min on ice, then mixtures were centrifuged (15 min, 4 °C, 14,000 × g) and the supernatant (input) was added to washed anti-GFP beads (Chromotek). Beads and lysates were incubated 2–4 h at 4 °C while rotating, washed three times in NETT++ buffer and bound proteins were eluted by boiling in 2x Sample buffer. Immunoblotting was performed following standard procedures with the following antibodies: anti-GFP mAb (Roche, #11814460001), anti-GFP pAb (Abcam #ab290 and Invitrogen #A11122), anti-RAD51[46], anti-BRCA2 mAb Ab1 OP-95 (Millipore #OP95), anti-BRCA2 (Abcam #27976), anti-Flag (M2 antibody, Sigma, F3165 and F1804). For quantitative immunoblotting fluorescently labeled secondary antibodies were used: anti-mouse CF680 (Sigma #SAB460199), anti-rabbit CF770 (Sigma #SAB460215); membranes were scanned using Odyssey CLx imaging system (LI-COR).

[2] = biological target: T1, Human full-length HSF2BP WT (human), O75031; experiment: ITC; HSF2BP or ARM in the cell at 10-20 uM, BRCA2 fragment in the syringe at 40-100 uM; 293 K; 25 mM Tris pH 7.5, 250 mM NaCl, 5 mM beta-mercaptoethanol; two replicates
T1 chain: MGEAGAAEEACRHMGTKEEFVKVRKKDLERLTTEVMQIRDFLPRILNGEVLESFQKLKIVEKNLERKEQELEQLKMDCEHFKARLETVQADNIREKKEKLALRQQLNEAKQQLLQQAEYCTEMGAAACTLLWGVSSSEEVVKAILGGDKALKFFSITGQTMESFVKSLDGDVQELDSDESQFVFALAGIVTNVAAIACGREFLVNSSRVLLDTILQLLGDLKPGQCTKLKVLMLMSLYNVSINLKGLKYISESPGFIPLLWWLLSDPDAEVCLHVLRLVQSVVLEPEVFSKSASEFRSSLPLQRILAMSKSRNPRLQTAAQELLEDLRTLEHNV

[3] = system: BRCA2 (Flag-F9); experiment: Co-immunoprecipitation of GFP-HSF2BP variants with Flag-BRCA2 F9; type: cell-based, human; conditions: transient HEK293T / stable HeLa, anti-GFP beads, immunoblot
From the text: as §1, §2

[4] = biological target: T2, ARM domain of HSF2BP (Homo sapiens, UniProt O75031); experiment: SEC-MALS of ARM free or bound to F15X; type: physicochemical
T2 construct: The armadillo domain of HSF2BP, from aa 122 to aa 334; 6xHis-TEV (N, cleaved yes); made in house; host or cells: E. coli BL21 DE3 Rosetta2
T2 sequence (O75031 122-334): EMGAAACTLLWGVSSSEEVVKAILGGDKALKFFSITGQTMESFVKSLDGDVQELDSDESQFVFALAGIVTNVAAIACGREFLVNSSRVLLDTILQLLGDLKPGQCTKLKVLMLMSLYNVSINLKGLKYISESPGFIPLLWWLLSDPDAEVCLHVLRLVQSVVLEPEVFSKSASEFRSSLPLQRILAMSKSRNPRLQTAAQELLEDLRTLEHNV
Method: Size-exclusion chromatography (SEC) coupled to MALS was used in order to measure the molecular masses of the complexes in solution. Therefore, HSF2BP and ARM proteins were loaded in the presence and absence of the BRCA2 fragment F15X on a Superdex 200 10/300 GL (GE Healthcare) using a HPLC Shimadzu system coupled to MALS/QELS/UV/RI (Wyatt Technology). The chromatography buffer was 25 mM Tris-HCl buffer, pH 7.5, 250 mM NaCl, 5 mM β-mercaptoethanol. The proteins were injected at 0.8–1 mg/ml in 100 μl. Data were analyzed using the ASTRA software; a calibration was performed with BSA as a standard.

[5] = biological target: T3, Human full-length HSF2BP WT (human, UniProt O75031 1-334); experiment: ITC; HSF2BP or ARM in the cell at 10-20 uM, BRCA2 fragment in the syringe at 40-100 uM; 293 K; 25 mM Tris pH 7.5, 250 mM NaCl, 5 mM beta-mercaptoethanol; two replicates; conditions: both partners purified
T3 construct: HSF2BP, human, full length, wild type; pETM11 (6xHis-TEV) vector; purified as in Brandsma et al., Cell Rep 2019; also called HSF2BP FL; HFS2BP; source: E. coli BL21 DE3 Rosetta2, purified (HisTrap, TEV cleavage, SEC)
T3 sequence (looked up): T1 chain

[6] = biological target: T4, armadillo domain of HSF2BP, from aa 122 to aa 334 (ARM) (human, UniProt O75031 122-334); experiment: as above; conditions: both partners purified
T4 construct: Free ARM is a dimer (SEC-MALS); four ARM with two F15X in the complex; A selenomethionine-labelled form was used for the deposited crystal structure; also called HSF2BP ARM; H3 (recombinant); source: E. coli BL21 DE3 Rosetta2, purified (HisTrap, TEV cleavage, SEC)
T4 sequence (looked up): T2 sequence (O75031 122-334)

Molecule: F15: Flag-tagged BRCA2 fragment N2288-T2337 (NLLNEFDRIIENQEKSLKASKSTPDGTIKDRRLFMHHVSLEPITCVPFRT; also: Flag tag, end not given here)
interaction with HSF2BP (co-precipitation) [1]: minimal interaction region

Kd [2]: 2100 nM and 1500 nM | dH [2]: -1.8 kcal/mol and -1.7 kcal/mol | stoichiometry N [2]: 0.9 and 0.89
Molecule: DGTIKDRRLFMHHVSLEPITTVPFRTTKERQ (modifications not checked) [BRCA2 peptide F15X∆12 (D2312-E2342)]

binding to BRCA2 (co-precipitation) [3]: minimal interaction region
B1: H3: HSF2BP fragment E122-V334, armadillo domain (protein)
chain: T2 sequence (O75031 122-334)
modifications: left off: His6, end not stated, cleaved
notes: HSF2BP fragment E122-V334, armadillo domain
oligomeric state of ARM ([4]; SEC-MALS and SEC-SAXS): dimeric | molecular weight of species in solution ([4]; SEC-MALS, Superdex 200 10/300 GL, 25 mM Tris-HCl pH 7.5, 250 mM NaCl, 5 mM β-mercaptoethanol): 48 kDa

Kd [5]: 1.3 nM | dH [5]: -11 kcal/mol and -10.9 kcal/mol | stoichiometry N [5]: 0.43 and 0.47 | Kd [6]: 31 nM and 25 nM | dH [6]: -8.3 kcal/mol and -11.9 kcal/mol | stoichiometry N [6]: 0.45 and 0.49
B2: Human BRCA2 fragment F0 (S2213-Q2342, C2332T) (domain or fragment, UniProt P51587 2213-2342, looked up)
chain: STYSKDSENYFETEAVEIAKAFMEDDELTDSKLPSHATHSLFTCPENEEMVLSNSRIGKRRGEPLILVGEPSIKRNLLNEFDRIIENQEKSLKASKSTPDGTIKDRRLFMHHVSLEPITTVPFRTTKERQ
notes: BRCA2, human, residues 2213-2342 with C2332T; pET-22b fusion: BRCA2 fragment, TEV site, GB1, 6xHis; residues of the TEV site may remain at the C-terminus after cleavage (surmise); 15N- or 15N/13C-labelled for NMR; also called BRCA2-F0; source: E. coli BL21 DE3 Star, purified (HisTrap, TEV cleavage, SEC); not shown: GB1, C-terminal, cleaved; His6, C-terminal, cleaved

B3: S2309N: Flag-BRCA2-F9 variant (protein)
chain: GKRRGEPLILVGEPSIKRNLLNEFDRIIENQEKSLKASKNTPDGTIKDRRLFMHHVSLEPITCVPFRT
modifications: left off: Flag, end not stated, kept
notes: Flag-BRCA2-F9 variant
interaction with HSF2BP (co-precipitation) [1]: either strongly decreased or abolished binding | interaction with HSF2BP (co-precipitation) ([1]; listed as S2309): did not interact

B4: L2304K: Flag-BRCA2-F9 variant (protein)
chain: B3 chain with L35K, N40S
modifications: left off: Flag, end not stated, kept
notes: Flag-BRCA2-F9 variant
interaction with HSF2BP (co-precipitation) [1]: either strongly decreased or abolished binding

B5: P2329L: Flag-BRCA2-F9 variant (protein)
chain: B3 chain with N40S, P60L
modifications: left off: Flag, end not stated, kept
notes: Flag-BRCA2-F9 variant
interaction with HSF2BP (co-precipitation) [1]: either strongly decreased or abolished binding | interaction with HSF2BP (co-precipitation) ([1]; listed as P2329): did not interact

B6: R2318Q: Flag-BRCA2-F9 variant (protein)
chain: B3 chain with N40S, R49Q
modifications: left off: Flag, end not stated, kept
notes: Flag-BRCA2-F9 variant
interaction with HSF2BP (co-precipitation) [1]: either strongly decreased or abolished binding | interaction with HSF2BP (co-precipitation) ([1]; listed as R2318): did not interact
